These are literature values, as cited in PMC11695321.

Targets include IKKα (Homo sapiens) (UniProt O15111); NF-κB p50 (Homo sapiens) (UniProt P19838); IKKβ (Homo sapiens) (UniProt O14920).
Holding throughout (assay): SPR

Chain of UniProt P19838 (P19838 1-433): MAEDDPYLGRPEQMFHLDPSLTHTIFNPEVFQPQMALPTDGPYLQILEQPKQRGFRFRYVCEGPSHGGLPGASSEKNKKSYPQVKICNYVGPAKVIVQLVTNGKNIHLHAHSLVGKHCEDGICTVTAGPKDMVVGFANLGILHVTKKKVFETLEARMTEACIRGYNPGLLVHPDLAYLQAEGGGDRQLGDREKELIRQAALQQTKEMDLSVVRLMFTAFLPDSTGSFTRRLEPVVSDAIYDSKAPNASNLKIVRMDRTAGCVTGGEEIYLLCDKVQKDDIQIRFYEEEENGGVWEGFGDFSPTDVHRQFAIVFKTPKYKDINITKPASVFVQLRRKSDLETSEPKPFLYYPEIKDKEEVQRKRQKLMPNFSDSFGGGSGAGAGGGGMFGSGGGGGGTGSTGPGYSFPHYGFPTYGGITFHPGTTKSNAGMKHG
Chain of UniProt O15111 (O15111 whole entry): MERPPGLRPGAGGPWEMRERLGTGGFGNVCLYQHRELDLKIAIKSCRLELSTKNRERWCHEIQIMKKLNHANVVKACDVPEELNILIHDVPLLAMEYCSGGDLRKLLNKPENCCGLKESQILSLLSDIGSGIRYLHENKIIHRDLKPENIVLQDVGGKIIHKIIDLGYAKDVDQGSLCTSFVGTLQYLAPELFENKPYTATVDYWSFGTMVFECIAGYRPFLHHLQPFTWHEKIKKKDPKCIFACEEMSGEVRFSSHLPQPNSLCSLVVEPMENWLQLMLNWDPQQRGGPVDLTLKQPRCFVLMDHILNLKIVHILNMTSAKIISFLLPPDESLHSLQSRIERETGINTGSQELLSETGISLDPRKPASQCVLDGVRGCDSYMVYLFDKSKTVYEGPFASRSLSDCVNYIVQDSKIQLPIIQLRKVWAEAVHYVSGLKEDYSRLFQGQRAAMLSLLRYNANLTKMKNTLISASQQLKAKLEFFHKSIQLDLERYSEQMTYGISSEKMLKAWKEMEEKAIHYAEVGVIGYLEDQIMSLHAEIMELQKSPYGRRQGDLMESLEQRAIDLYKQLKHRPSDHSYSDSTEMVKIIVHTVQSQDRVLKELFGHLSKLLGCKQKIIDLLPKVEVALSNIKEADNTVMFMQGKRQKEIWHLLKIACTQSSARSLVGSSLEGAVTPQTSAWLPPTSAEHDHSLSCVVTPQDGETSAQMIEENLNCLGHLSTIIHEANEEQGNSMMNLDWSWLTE
Chain of UniProt O14920 (O14920 whole entry): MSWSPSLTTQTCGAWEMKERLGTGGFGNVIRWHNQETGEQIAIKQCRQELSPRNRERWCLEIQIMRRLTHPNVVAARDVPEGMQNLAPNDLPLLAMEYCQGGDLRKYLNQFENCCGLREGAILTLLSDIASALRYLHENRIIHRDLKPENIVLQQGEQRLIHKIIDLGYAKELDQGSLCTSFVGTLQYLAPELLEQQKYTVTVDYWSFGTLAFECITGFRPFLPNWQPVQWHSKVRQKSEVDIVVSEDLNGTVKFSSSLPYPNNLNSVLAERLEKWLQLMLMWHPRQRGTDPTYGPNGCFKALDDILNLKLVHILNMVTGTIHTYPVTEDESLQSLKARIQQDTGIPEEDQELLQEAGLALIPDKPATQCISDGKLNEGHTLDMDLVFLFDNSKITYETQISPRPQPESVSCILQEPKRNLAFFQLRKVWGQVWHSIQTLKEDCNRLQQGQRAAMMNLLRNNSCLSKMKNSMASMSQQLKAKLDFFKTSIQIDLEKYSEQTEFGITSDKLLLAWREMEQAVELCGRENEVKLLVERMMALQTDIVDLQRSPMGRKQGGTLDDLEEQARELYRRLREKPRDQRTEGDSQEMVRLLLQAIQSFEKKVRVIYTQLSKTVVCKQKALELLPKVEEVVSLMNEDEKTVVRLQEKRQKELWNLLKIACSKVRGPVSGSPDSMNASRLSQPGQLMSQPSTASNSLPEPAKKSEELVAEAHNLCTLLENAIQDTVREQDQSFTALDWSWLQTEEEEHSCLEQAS

With melittin (from UniProt P01501), the dissociation constant Kd is 4.6 µM with IKKα (Homo sapiens), 1.01 nM in the data set with NF-κB p50 (Homo sapiens) and 1.34 nM in the data set with IKKβ (Homo sapiens).
